Measurements from article doi:10.1101/2022.09.03.506465 (bioRxiv, 2022).

T1: TSEN54, subunit of full-length, catalytically inactive human TSEN (human, UniProt Q7Z6J9 1-526)
T1 sequence (looked up): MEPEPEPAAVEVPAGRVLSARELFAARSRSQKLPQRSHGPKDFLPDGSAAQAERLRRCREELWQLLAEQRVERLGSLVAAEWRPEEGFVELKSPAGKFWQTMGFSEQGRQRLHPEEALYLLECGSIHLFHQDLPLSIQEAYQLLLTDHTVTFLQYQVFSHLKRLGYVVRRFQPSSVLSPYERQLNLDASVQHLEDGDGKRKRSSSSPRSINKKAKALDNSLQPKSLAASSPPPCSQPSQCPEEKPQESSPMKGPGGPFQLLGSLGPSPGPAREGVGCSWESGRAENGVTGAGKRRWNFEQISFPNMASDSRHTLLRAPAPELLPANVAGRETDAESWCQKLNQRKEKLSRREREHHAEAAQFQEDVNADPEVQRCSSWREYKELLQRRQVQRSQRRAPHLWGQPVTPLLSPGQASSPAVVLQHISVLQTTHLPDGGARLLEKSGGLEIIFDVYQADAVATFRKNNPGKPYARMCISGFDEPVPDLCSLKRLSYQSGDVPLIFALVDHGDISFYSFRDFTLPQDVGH

B1: TSEN34^H255F, subunit of full-length, catalytically inactive human TSEN (natural protein, UniProt Q9BSV6 1-310, looked up)
chain: MLVVEVANGRSLVWGAEAVQALRERLGVGGRTVGALPRGPRQNSRLGLPLLLMPEEARLLAEIGAVTLVSAPRPDSRHHSLALTSFKRQQEESFQEQSALAAEARETRRQELLEKITEGQAAKKQKLEQASGASSSQEAGSSQAAKEDETSDGQASGEQEEAGPSSSQAGPSNGVAPLPRSALLVQLATARPRPVKARPLDWRVQSKDWPHAGRPAHELRYSIYRDLWERGFFLSAAGKFGGDFLVYPGDPLRFFAHYIAQCWAPEDTIPLQDLVAAGRLGTSVRKTLLLCSPQPDGKVVYTSLQWASLQ

What was measured:
[1] = biological target: B1; assay: cryo-EM structure
[2] = biological target: T1, TSEN54, subunit of full-length, …; assay: cryo-EM structure

binding result [1]	binding result [2]	Binder
binds		TSEN15, subunit of full-length, catalytically inactive human TSEN (natural protein, UniProt Q8WW01 1-171, looked up) MEERGDSEPTPGCSGLGPGGVRGFGDGGGAPSWAPEDAWMGTHPKYLEMMELDIGDATQVYVAFLVYLDLMESKSWHEVNCVGLPELQLICLVGTEIEGEGLQTVVPTPITASLSHNRIREILKASRKLQGDPDLPMSFTLAIVESDSTIVYYKLTDGFMLPDPQNISLRR
	binds	B1
	binds	TSEN2^H377F, subunit of full-length, catalytically inactive human TSEN (natural protein, UniProt Q8NCE0 1-465, looked up) MAEAVFHAPKRKRRVYETYESPLPIPFGQDHGPLKEFKIFRAEMINNNVIVRNAEDIEQLYGKGYFGKGILSRSRPSFTISDPKLVAKWKDMKTNMPIITSKRYQHSVEWAAELMRRQGQDESTVRRILKDYTKPLEHPPVKRNEEAQVHDKLNSGMVSNMEGTAGGERPSVVNGDSGKSGGVGDPREPLGCLQEGSGCHPTTESFEKSVREDASPLPHVCCCKQDALILQRGLHHEDGSQHIGLLHPGDRGPDHEYVLVEEAECAMSEREAAPNEELVQRNRLICRRNPYRIFEYLQLSLEEAFFLVYALGCLSIYYEKEPLTIVKLWKAFTVVQPTFRTTYMAYHYFRSKGWVPKVGLKYGTDLLLYRKGPPFYFASYSVIIELVDDHFEGSLRRPLSWKSLAALSRVSVNVSKELMLCYLIKPSTMTDKEMESPECMKRIKVQEVILSRWVSSRERSDQDDL
